Laboratory results taken from paper PMC5454954, “BDNF Binds Its Pro-Peptide with High Affinity and the Common Val66Met Polymorphism Attenuates the Interaction” (International Journal of Molecular Sciences, 2017).
Positions count from the first letter of the chain named. Each block holds one molecule with its values, some of them ahead of it.

Legend:
[1] = target: BDNF pro-peptide, Met66 (Val66Met polymorphism; Met-pro-peptide) V66M (UniProt P23560); assay: Surface plasmon resonance (BIAcore 2000); details: pH 7.4; 20 °C; 0.15 M NaCl; HBS-EP: 0.01 M HEPES (pH 7.4). For Figure 2c the same buffer was adjusted to pH 6.5 or 7.0 with HCl.
[2] = target: BDNF pro-peptide, Val66 (wild type; Val-pro-peptide) (UniProt P23560); assay: Surface plasmon resonance (BIAcore 2000); details: pH 7.4; 20 °C; 0.15 M NaCl; HBS-EP: 0.01 M HEPES (pH 7.4). For Figure 2c the same buffer was adjusted to pH 6.5 or 7.0 with HCl.
[3] = target: T1, recombinant BDNF pro-peptide with the Met substitution at position 66 (Val66Met) (human, UniProt P23560 19-128, Val66Met); assay: SPR; BIAcore 2000; BDNF pro-peptide (Val or Met) amine-coupled to a CM5 chip at about 2000 RU; neurotrophins and other proteins flowed over; 20 °C, 20 µL/min; HBS-EP (0.01 M HEPES pH 7.4, 0.15 M NaCl, 3 mM EDTA, 0.005% Surfactant P20); details: both partners purified
T1 construct: BDNF pro-peptide, residues 19-128 of human precursor BDNF, with the common polymorphism Val66Met; Vector pET-19b; also called Met-BDNF pro-peptide; Met-pro-peptide; source: E. coli BL21 (DE3) pLysS, purified by liquid chromatography
T1 sequence (looked up): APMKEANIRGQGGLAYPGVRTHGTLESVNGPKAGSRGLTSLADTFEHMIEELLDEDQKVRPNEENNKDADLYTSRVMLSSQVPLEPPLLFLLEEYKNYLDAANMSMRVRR

[4] = target: T2, recombinant wild-type BDNF pro-peptide (Val at position 66) (human, UniProt P23560 19-128); assay: as above; details: both partners purified
T2 construct: BDNF pro-peptide, residues 19-128 of human precursor BDNF; Vector pET-19b; also called Val-BDNF pro-peptide; Val-pro-peptide; source: E. coli BL21 (DE3) pLysS, purified by liquid chromatography
T2 sequence (looked up): T1 sequence (looked up) with M48V

[5] = target: T3, recombinant wild-type BDNF pro-peptide (Val at position 66) (human, UniProt P23560 19-128); assay: SPR
T3 chain: T1 sequence (looked up) with M48V

- ka [1]: 36300 M⁻¹ s⁻¹
- kd [1]: 0.000444 s⁻¹
- ka [2]: 378000 M⁻¹ s⁻¹
- kd [2]: 0.0159 s⁻¹
Molecule: Brain-derived neurotrophic factor (mature BDNF)

- Kd [3]: 12.2 nM
- koff [3]: 0.000444 s⁻¹
- kon [3]: 36300 M⁻¹ s⁻¹
- Kd [4]: 42.1 nM
- koff [4]: 0.0159 s⁻¹
- kon [4]: 378000 M⁻¹ s⁻¹
B1: brain-derived neurotrophic factor (BDNF), recombinant human (ligand)
chain: HSDPARRGELSVCDSISEWVTAADKKTAVDMSGGTVTVLEKVPVSKGQLKQYFYETKCNPMGYTKEGCRGIDKRHWNSQCRTTQSYVRALTMDSKKRIGWRFIRIDTSCVCTLTIKRGR
modifications: mature BDNF; non-covalent homodimer, three intrachain disulfides per chain; a recombinant N-terminal Met is not stated

- Kd [5]: 230 nM
B2: recombinant human neurotrophin-4 (NT-4) (ligand)
chain: GVSETAPASRRGELAVCDAVSGWVTDRRTAVDLRGREVEVLGEVPAAGGSPLRQYFFETRCKADNAEEGGPGAGGGGCRGVDRRHWVSECKAKQSYVRALTADAQGRVGWRWIRIDTACVCTLLSRTGRA
